The text below walks through data of patent US20120121589A1, “MODIFIED EGFR ECTODOMAIN” (WAYNE STATE UNIVERSITY, priority 2009, published 2012).

“Also recorded” adds a separate entry of the source. *: point of attachment. Cbz = O=C(OCc1ccccc1)*; CH2F = FC*

Broadly, the inhibition of growth is the drop in the measured response relative to a control, in per cent. The low end stands for little suppression, the high end for strong suppression.

One test concerns MDA-MB-468 xenografts. The test can be described thus: MDA-MB-468 xenografts in SCID mice, tumor growth. The test is classed as in vivo. As to the method:
Severe combined immunodeficient mice xenografts of MDA-MB-468 cells included the following aspects. […] When tumor burden reached 1,500 to 2,000 mg, mice were euthanized. The tumors were removed, cut into 20 to 30 mg fragment, and subsequently transplanted (s.c.) bilaterally into similarly conditioned 28 animals. […] Treatment was started on day 7 and continued until day 23. Animals and tumor burden were followed for up to 55 days. Tumor measurements were carried out at multiple time points during the experimental period. Mice were weighed and monitored for signs of toxicity. Tumor weights in SCID mice were estimated as tumor weight (mg)=(A×B2)/2, where A and B are the tumor length and width (in mm), respectively.

The test system of test [1] is MDA-MB-468 cells. As to the kind of experiment: MTT growth assay and CalcuSyn synergy analysis in MDA-MB-468 cells. The test is classed as cell-based, human. The settings on record: for Dasatinib (Fa): MDA-MB-468. Here is the method: (§1) Growth inhibition assay included the following aspects. […] At the end of the treatment period, cells were incubated with 10% of 5 mg/mL stock of MTT and incubated for 3 hours at 37° C.
(§2) Analysis of interaction between two drugs included the following aspects. Combination index (CI) method adapted for in vitro anticancer drug testing was used to determine the nature of interaction between the two agents as described by Majumdar APN, Banerjee S, Nautiyal J, et al. Curcumin synergizes with resveratrol to inhibit colon cancer. […] Based on CI values, the extent of synergism/antagonism may be determined.

The next test deals with MDA-MB-231 cells. As to the kind of experiment: MTT growth assay and CalcuSyn synergy analysis in MDA-MB-231 cells. In kind it is cell-based, human. As to the method:
as §1, §2

The test system of test [2] is MDA-MB-468 cells. As to the kind of experiment: Apoptosis in MDA-MB-468 cells (DNA fragmentation ELISA, acridine orange staining). The settings on record: MDA-MB-468 cells preincubated with inhibitor for 3 hours, then EBIP and dasatinib; FIG. 15B. On the technique in general: An ELISA detects its analyte on a solid surface through an enzyme-linked reagent.
A further test has as its target T1, HER-3 (Homo sapiens, UniProt P21860).
T1 construct: endogenous in cells; host or cells: MDA-MB-453
As to the kind of experiment: Heregulin-induced phosphorylation of HER-3 in MDA-MB-453 cells. In kind it is cell-based. The settings on record: preincubation, then heregulin, FIG. 8, FIG. 19. The text has this: (§3) The breast cancer MDA-MB-453 cells contain high levels of HER-2 and HER-3. […] Binding of heregulin HER-3 leads to activation and subsequent heterodimerization of HER-3 with one or more EGFR family members.
(§4) Western blot analysis included the following aspects.

The subject of test [3] is breast cancer SKBR-3 cells. The test can be described thus: MTT growth assay in breast cancer SKBR-3 cells. The test is classed as cell-based, human. The settings on record: increasing concentrations, 48 h; FIG. 7. As to the method: as §1
On the technique in general: Formazan colour is commonly taken as a measure of viable cells.

Test [4] concerns colon cancer HCT-116 cells. The test can be described thus: MTT growth assay in colon cancer HCT-116 cells. The test is classed as cell-based. As to the method: as §1
For test [5], the system named is breast cancer SKBR cell xenografts. The test can be described thus: SKBR cell xenografts in SCID mice. The test is classed as in vivo. The settings on record: FIG. 9. The text has this:
SKBR cells express high levels of HER-2 but contain little no HER-1/EGFR or HER-3.

The next test deals with T2, HER-2 (Homo sapiens, UniProt P04626).
T2 construct: endogenous in cells; host or cells: MDA-MB-453
As to the kind of experiment: Heregulin-induced phosphorylation of HER-2 in MDA-MB-453 cells. In kind it is cell-based. The settings on record: preincubation, then heregulin, FIG. 8, FIG. 19.
Text: as §3, §4

For test [6], the system named is Erks (extracellular signal-regulated kinases). The test can be described thus: TGF-α-induced phosphorylation of ERKs in HCT-116 cells (Western blot). The test is classed as cell-based. The settings on record: prior exposure, FIG. 6. A general note: In western blotting, separated proteins are transferred to a membrane and probed.
The next test relates to c-Src. As to the kind of experiment: TGF-α-induced phosphorylation of Src in HCT-116 cells (Western blot). In kind it is cell-based. The settings on record: prior exposure, FIG. 5.
The next test addresses T3, EGFR (Homo sapiens, UniProt P00533).
T3 construct: endogenous in cells
As to the kind of experiment: TGF-α-induced tyrosine phosphorylation of EGFR (Western blot). The test is classed as cell-based. The settings on record: preincubation 10 μg/ml for 30 min; 10 nM TGF-α for 10 min; FIG. 4.

T1 sequence (P21860 20-1342): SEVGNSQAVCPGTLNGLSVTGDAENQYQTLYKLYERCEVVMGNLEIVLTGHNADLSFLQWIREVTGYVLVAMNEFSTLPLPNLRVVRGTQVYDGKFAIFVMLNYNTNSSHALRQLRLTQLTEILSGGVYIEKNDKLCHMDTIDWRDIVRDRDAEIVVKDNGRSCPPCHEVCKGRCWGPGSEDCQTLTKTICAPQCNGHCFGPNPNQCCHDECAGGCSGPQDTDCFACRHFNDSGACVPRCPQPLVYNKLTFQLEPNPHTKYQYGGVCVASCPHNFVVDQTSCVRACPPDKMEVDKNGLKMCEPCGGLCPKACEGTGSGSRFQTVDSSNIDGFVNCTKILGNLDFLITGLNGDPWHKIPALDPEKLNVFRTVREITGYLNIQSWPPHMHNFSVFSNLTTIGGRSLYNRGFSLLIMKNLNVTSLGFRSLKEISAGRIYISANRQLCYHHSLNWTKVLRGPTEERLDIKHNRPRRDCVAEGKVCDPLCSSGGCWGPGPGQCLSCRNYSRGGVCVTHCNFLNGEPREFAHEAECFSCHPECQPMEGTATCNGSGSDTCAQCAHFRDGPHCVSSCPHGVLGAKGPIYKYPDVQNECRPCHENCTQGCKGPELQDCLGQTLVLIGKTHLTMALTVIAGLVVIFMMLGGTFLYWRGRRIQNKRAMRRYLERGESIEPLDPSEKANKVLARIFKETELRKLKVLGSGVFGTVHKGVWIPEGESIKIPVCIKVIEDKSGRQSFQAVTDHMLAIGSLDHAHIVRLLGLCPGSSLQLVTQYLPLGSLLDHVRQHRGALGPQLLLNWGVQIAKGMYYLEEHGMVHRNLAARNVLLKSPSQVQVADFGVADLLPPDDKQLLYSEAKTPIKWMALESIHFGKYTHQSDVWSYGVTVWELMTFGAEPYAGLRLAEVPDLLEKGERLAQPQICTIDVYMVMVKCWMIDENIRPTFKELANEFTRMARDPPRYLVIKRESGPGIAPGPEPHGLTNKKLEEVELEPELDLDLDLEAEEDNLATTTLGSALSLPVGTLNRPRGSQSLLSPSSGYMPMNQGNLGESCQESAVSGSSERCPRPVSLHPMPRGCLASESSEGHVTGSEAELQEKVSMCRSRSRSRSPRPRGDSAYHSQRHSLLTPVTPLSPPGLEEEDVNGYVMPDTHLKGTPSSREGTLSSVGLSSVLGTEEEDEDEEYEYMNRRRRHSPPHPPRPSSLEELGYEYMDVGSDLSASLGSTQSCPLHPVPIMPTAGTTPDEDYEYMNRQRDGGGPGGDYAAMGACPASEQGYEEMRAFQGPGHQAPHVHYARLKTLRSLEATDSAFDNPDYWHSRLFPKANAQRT

In the case of `Cc1nc(Nc2ncc(C(=O)Nc3c(C)cccc3Cl)s2)cc(N2CCN(CCO)CC2)n1` [Dasatinib, dasatinib], in the test with MDA-MB-468 xenografts (P<0.05, FIG. 16, Table 3), the “tumor growth, significance of inhibition” value is listed as “no significant inhibition”. Further, in the test with MDA-MB-468 xenografts (day-55, dasatinib 10 mg/kg gavage and/or EBIP 25 μg/mouse s.c., every other day, day 7 to 23), the “tumor weight at the end of 55 days, Mean ± SD” value is reported as 584 ± 189 mg. Also, the “inhibition (suppression) of tumor growth” value in the test on MDA-MB-468 xenografts (vs vehicle-treated controls, dasatinib 10 mg/kg gavage and/or EBIP 25 μg/mouse s.c., every other day) is “about 27%”. The “Dasatinib (Fa)” value with MDA-MB-468 cells [1] (Dasatinib 0.50 μM) is recorded as 0.216; in the test on MDA-MB-468 cells [1] (Dasatinib 1.0 μM), 0.286; in the test on MDA-MB-468 cells [1] (Dasatinib 2.0 μM) it was 0.315; in the test with MDA-MB-468 cells [1] (Dasatinib 4.0 μM), 0.382; with MDA-MB-231 cells (Dasatinib 0.50 μM), 0.354; with MDA-MB-231 cells (Dasatinib 1.0 μM) it was 0.322. For the same molecule, the entries for the “Dasatinib (Fa)” value in the test on MDA-MB-231 cells (Dasatinib 2.0 μM) and in the test on MDA-MB-231 cells (Dasatinib 4.0 μM) were 0.353 and 0.392, respectively.

For the molecule Cbz-IETD-CH2F, the “effect of caspase inhibitor on apoptosis induction by the combined therapy” value with MDA-MB-468 cells [2] is “blocked apoptosis induction by the combined therapy”.

Consider Cbz-LEHD-CH2F, for which, in the test on MDA-MB-468 cells [2], the “effect of caspase inhibitor on apoptosis induction by the combined therapy” value was “blocked apoptosis induction by the combined therapy”.

B1: ERRP: rat ERRP that includes amino acids 1-478 and includes the U region (SEQ ID NO: 16); pan-erbB inhibitor (protein, listed as Rattus norvegicus)
chain: MRPSGTARTTLLVLLTALCAAGGALEEKKVCQGTSNRLTQLGTFEDHFLSLQRMYNNCEVVLGNLEITYVQRNYDLSFLKTIQEVAGYFLIALNTVERIPSEDLQIIRGNALYENTYALAILSNYGTNRTGLRELPMRNLQEILIGAVRFSNNPILCNMDTIQWRDIVQNVFMSNMSMDLQSHPSSCPKCDPSCPNGSCWGGGEENCQKLTKIICAQQCSHRCRGRSPSDCCHNQCAAGCTGPQKSDCLVCQKFQDEATCKDTCPPLMLYNPTTYQMDVNPEGKYSFGATCVKNCPRNYVVTDHGSCVRACGPDYYEVEEDGIRKCKKCDGPCRKVCNGIGIGEFKDTLSINATNIKHFKYCTAISGDLHILPVAFKGDSFTRTPPLDPRELEILKTVKEITGSLLIQAWPENWTDLHAFENLEIIRGRTKQHGQFSLAVVGLNITSLPWQVPSLSWQAVTRPLHPLAQNRVSWDTGP
With B1, the “inhibition of heregulin-induced phosphorylation/activation of HER-3” value in the test with HER-3 is on record as “able to inhibit; also recorded: about as equally effective as EBIP”. Also, in [3], the “inhibition of growth of SKBR-3 cells” value is “markedly inhibit the growth in a dose-dependent manner”. Further, in the test on MDA-MB-468 cells [1] (immunoaffinity-purified protein, FIG. 12D), the “inhibition of growth of MDA-MB-468 cells” value is given as “equally effective”. Further, the inhibition of growth in test [4] (dose of 20 μg/mL, vs corresponding controls, FIG. 18) came to 70%. Besides, in test [5] (SCID mice, vs vehicle), the “tumor growth of SKBR xenografts” value is listed as “noticeably decreased”. In addition, in test [5] (intratumoral 50 μg once a day, day 13 to 26, end of 40 day period, vs controls), the “inhibition of tumor growth” value is reported as “over 50%”. For the same molecule, in the test with HER-2, the “inhibition of heregulin-induced phosphorylation/activation of HER-2” value is reported as “able to inhibit; also recorded: about as equally effective as EBIP”. Also, the “attenuation of TGF-α-induced phosphorylation of Erks” value in [6] is listed as “greatly attenuated”. Moreover, in the test on c-Src, the “attenuation of TGF-α-induced phosphorylation of Tyr416 of c-Src” value is “abrogated”. Moreover, the “attenuation of TGF-α-induced tyrosine phosphorylation of EGFR (amino acid 845)” value in the test with EGFR is given as “greatly abrogates this stimulation”.

B2: rEGFR-447: rat ERRP that includes amino acids 1-447 but lacks the U region (SEQ ID NO: 15) (protein, listed as Rattus norvegicus)
chain: MRPSGTARTTLLVLLTALCAAGGALEEKKVCQGTSNRLTQLGTFEDHFLSLQRMYNNCEVVLGNLEITYVQRNYDLSFLKTIQEVAGYFLIALNTVERIPSEDLQIIRGNALYENTYALAILSNYGTNRTGLRELPMRNLQEILIGAVRFSNNPILCNMDTIQWRDIVQNVFMSNMSMDLQSHPSSCPKCDPSCPNGSCWGGGEENCQKLTKIICAQQCSHRCRGRSPSDCCHNQCAAGCTGPQKSDCLVCQKFQDEATCKDTCPPLMLYNPTTYQMDVNPEGKYSFGATCVKNCPRNYVVTDHGSCVRACGPDYYEVEEDGIRKCKKCDGPCRKVCNGIGIGEFKDTLSINATNIKHFKYCTAISGDLHILPVAFKGDSFTRTPPLDPRELEILKTVKEITGSLLIQAWPENWTDLHAFENLEIIRGRTKQHGQFSLAVVGLNITS
Consider B2, for which the “inhibition of heregulin-induced phosphorylation/activation of HER-3” value with HER-3 was “neither rEGFR-447 nor hEGFR-501 is effective; also recorded: neither rEGFR-447 nor hEGFR-501 re effective”. In addition, the “inhibition of growth of SKBR-3 cells” value in test [3] is recorded as “neither rEGFR-447 nor hEGFR-501 caused any apparent change in the growth”. Further, the “inhibition of growth (MTT)” value in [4] (increasing doses, FIG. 3) is given as “only marginally effective”. Also, in the test with HER-2, the “inhibition of heregulin-induced phosphorylation/activation of HER-2” value is reported as “neither rEGFR-447 nor hEGFR-501 is effective; also recorded: neither rEGFR-447 nor hEGFR-501 re effective”. The “attenuation of TGF-α-induced phosphorylation of Erks” value in test [6] was “not”. Besides, in the test with c-Src, the “attenuation of TGF-α-induced phosphorylation of Tyr416 of c-Src” value is on record as “less attenuation”. In addition, the “attenuation of TGF-α-induced tyrosine phosphorylation of EGFR (amino acid 845)” value with EGFR is given as “do not attenuate”.
